Measurements as given in US20230192890A1.

Experiments:
[1] = target: full-length recombinant mouse PAD4 (mouse) (UniProt Q9Z183); test: ELISA, mouse PAD4 on plate, antibody 0.0002441 ug/mL
[2] = target: full-length recombinant mouse PAD4 (mouse) (UniProt Q9Z183); test: ELISA, mouse PAD4 on plate, antibody 1 ug/mL
[3] = target: full-length recombinant mouse PAD4 (mouse) (UniProt Q9Z183); test: ELISA, mouse PAD4 on plate, antibody 6.104E-05 ug/mL
[4] = target: full-length recombinant mouse PAD4 (mouse) (UniProt Q9Z183); test: ELISA, mouse PAD4 on plate, antibody 0.25 ug/mL
[5] = target: full-length recombinant mouse PAD4 (mouse) (UniProt Q9Z183); test: ELISA, mouse PAD4 on plate, antibody 0.0039063 ug/mL
[6] = target: full-length recombinant mouse PAD4 (mouse) (UniProt Q9Z183); test: ELISA, mouse PAD4 on plate, antibody 0.0009766 ug/mL
[7] = target: full-length recombinant mouse PAD4 (mouse) (UniProt Q9Z183); test: ELISA, mouse PAD4 on plate, antibody 0.015625 ug/mL
[8] = target: Ala mutant SEQ ID NO: 34 (human); test: ELISA, peptide on plate (10 ug/mL)
[9] = target: T1, Ala mutant SEQ ID NO: 36 (human); test: ELISA, peptide on plate (10 ug/mL)
T1 sequence (peptide): EENMDDQWMADEMEIGY

[10] = target: T2, Ala mutant SEQ ID NO: 41 (human); test: ELISA, peptide on plate (10 ug/mL)
T2 sequence (peptide): EENMDDQWMQDEMEAGY

[11] = target: T3, Ala mutant SEQ ID NO: 37 (human); test: ELISA, peptide on plate (10 ug/mL)
T3 sequence (peptide): EENMDDQWMQAEMEIGY

[12] = target: T4, Ala mutant SEQ ID NO: 40 (human); test: ELISA, peptide on plate (10 ug/mL)
T4 sequence (peptide): EENMDDQWMQDEMAIGY

[13] = target: T5, Ala mutant SEQ ID NO: 42 (human); test: ELISA, peptide on plate (10 ug/mL)
T5 sequence (peptide): EENMDDQWMQDEMEIAY

[14] = target: T6, Ala mutant SEQ ID NO: 39 (human); test: ELISA, peptide on plate (10 ug/mL)
T6 sequence (peptide): EENMDDQWMQDEAEIGY

[15] = target: T7, TA0096 (peptide antigen corresponding to positions 340 to 356 of PAD4) (human); test: ELISA, peptide on plate (10 ug/mL)
T7 sequence (peptide): EENMDDQWMQDEMEIGY

[16] = target: T8, Ala mutant SEQ ID NO: 43 (human); test: ELISA, peptide on plate (10 ug/mL)
T8 sequence (peptide): EENMDDQWMQDEMEIGA

[17] = target: T9, Ala mutant having 3-amino acid substitution, SEQ ID NO: 47 (human); test: ELISA, peptide on plate (10 ug/mL)
T9 sequence (peptide): EENMDDQWMAAAMEIGY

[18] = target: T10, Ala mutant SEQ ID NO: 32 (human); test: ELISA, peptide on plate (10 ug/mL)
T10 sequence (peptide): EENMDAQWMQDEMEIGY

[19] = target: T11, Ala mutant SEQ ID NO: 31 (human); test: ELISA, peptide on plate (10 ug/mL)
T11 sequence (peptide): EENMADQWMQDEMEIGY

[20] = target: T12, Ala mutant SEQ ID NO: 29 (human); test: ELISA, peptide on plate (10 ug/mL)
T12 sequence (peptide): EEAMDDQWMQDEMEIGY

[21] = target: T13, Ala mutant SEQ ID NO: 27 (human); test: ELISA, peptide on plate (10 ug/mL)
T13 sequence (peptide): AENMDDQWMQDEMEIGY

[22] = target: T14, Ala mutant SEQ ID NO: 28 (human); test: ELISA, peptide on plate (10 ug/mL)
T14 sequence (peptide): EANMDDQWMQDEMEIGY

[23] = target: T15, Ala mutant SEQ ID NO: 38 (human); test: ELISA, peptide on plate (10 ug/mL)
T15 sequence (peptide): EENMDDQWMQDAMEIGY

[24] = target: T16, Ala mutant SEQ ID NO: 33 (human); test: ELISA, peptide on plate (10 ug/mL)
T16 sequence (peptide): EENMDDAWMQDEMEIGY

[25] = target: Ala mutant SEQ ID NO: 35 (human); test: ELISA, peptide on plate (10 ug/mL)
[26] = target: T17, Ala mutant having 3-amino acid substitution, SEQ ID NO: 46 (human); test: ELISA, peptide on plate (10 ug/mL)
T17 sequence (peptide): EENMDDAAAQDEMEIGY

[27] = target: T18, Ala mutant SEQ ID NO: 30 (human); test: ELISA, peptide on plate (10 ug/mL)
T18 sequence (peptide): EENADDQWMQDEMEIGY

[28] = target: T19, Ala mutant having 3-amino acid substitution, SEQ ID NO: 49 (human); test: ELISA, peptide on plate (10 ug/mL)
T19 sequence (peptide): EENMDDQWMQDEMEIAA

[29] = target: T20, Ala mutant having 3-amino acid substitution, SEQ ID NO: 44 (human); test: ELISA, peptide on plate (10 ug/mL)
T20 sequence (peptide): AAAMDDQWMQDEMEIGY

[30] = target: T21, Ala mutant having 3-amino acid substitution, SEQ ID NO: 48 (human); test: ELISA, peptide on plate (10 ug/mL)
T21 sequence (peptide): EENMDDQWMQDEAAAGY

[31] = target: full-length recombinant mouse PAD4 (mouse) (UniProt Q9Z183); test: ELISA, mouse PAD4 on plate, antibody 0.0625 ug/mL

Sequence of full-length recombinant mouse PAD4 (mouse) (Q9Z183 whole entry): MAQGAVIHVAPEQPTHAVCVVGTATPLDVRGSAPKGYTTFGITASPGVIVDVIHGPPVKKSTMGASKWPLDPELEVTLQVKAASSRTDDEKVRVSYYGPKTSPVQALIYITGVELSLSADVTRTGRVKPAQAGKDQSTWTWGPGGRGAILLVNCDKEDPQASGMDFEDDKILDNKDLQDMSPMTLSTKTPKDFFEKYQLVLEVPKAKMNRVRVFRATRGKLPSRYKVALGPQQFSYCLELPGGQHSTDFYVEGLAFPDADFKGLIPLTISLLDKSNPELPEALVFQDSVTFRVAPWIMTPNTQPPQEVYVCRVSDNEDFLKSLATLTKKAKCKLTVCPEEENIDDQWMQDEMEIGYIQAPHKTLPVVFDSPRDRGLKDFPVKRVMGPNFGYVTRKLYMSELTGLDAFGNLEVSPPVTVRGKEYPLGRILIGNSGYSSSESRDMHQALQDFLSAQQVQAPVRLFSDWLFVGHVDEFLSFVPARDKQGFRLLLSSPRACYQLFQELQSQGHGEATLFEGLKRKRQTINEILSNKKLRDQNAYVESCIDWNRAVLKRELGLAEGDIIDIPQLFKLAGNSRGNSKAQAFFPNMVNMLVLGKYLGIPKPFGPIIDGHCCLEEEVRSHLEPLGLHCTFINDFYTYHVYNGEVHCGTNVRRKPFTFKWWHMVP

absorbance 490 nm/630 nm [1]: 0.034 OD | absorbance 490 nm/630 nm [2]: 0.028 OD | absorbance 490 nm/630 nm [3]: 0.011 OD | absorbance 490 nm/630 nm [4]: 0.023 OD | absorbance 490 nm/630 nm [5]: 0.024 OD | absorbance 490 nm/630 nm [6]: 0.021 OD | absorbance 490 nm/630 nm [7]: 0.018 OD | absorbance 490 nm/630 nm [8]: 0.017 OD | absorbance 490 nm/630 nm [9]: 0.008 OD | absorbance 490 nm/630 nm [10]: 0.01 OD | absorbance 490 nm/630 nm [11]: 0.01 OD | absorbance 490 nm/630 nm [12]: 0.011 OD | absorbance 490 nm/630 nm [13]: 0.017 OD | absorbance 490 nm/630 nm [14]: 0.008 OD | absorbance 490 nm/630 nm [15]: 0.052 OD | absorbance 490 nm/630 nm [16]: 0.057 OD | absorbance 490 nm/630 nm [17]: 0.052 OD | absorbance 490 nm/630 nm [18]: 0.012 OD | absorbance 490 nm/630 nm [19]: 0.004 OD | absorbance 490 nm/630 nm [20]: 0.001 OD | absorbance 490 nm/630 nm [21]: 0.007 OD | absorbance 490 nm/630 nm [22]: 0.001 OD | absorbance 490 nm/630 nm [23]: 0.012 OD | absorbance 490 nm/630 nm [24]: 0.011 OD | absorbance 490 nm/630 nm [25]: 0.011 OD | absorbance 490 nm/630 nm [26]: 0.052 OD | absorbance 490 nm/630 nm [27]: 0.009 OD | absorbance 490 nm/630 nm [28]: 0.065 OD | absorbance 490 nm/630 nm [29]: 0.054 OD | absorbance 490 nm/630 nm [30]: 0.052 OD | absorbance 490 nm/630 nm [31]: 0.02 OD
Substance: anti-dinitrophenyl (DNP) antibody (negative control)
